# Experimental data from patent US10654925B2, “Anti-marinobufagenin antibodies and uses thereof” (priority 2018, dated 2020).
# B1: 206/208: human anti-MBG antibody, VH SEQ ID NO: 36, VL SEQ ID NO: 37 (antibody, listed as Homo sapiens, V domains shown)
# VH: QVQLQESGPGLVKPSETLSLTCTVSGGSISSSSYYWGWIRQPPGKGLEWIGSIYYSGSTYYNPSLKSRVTISVDTSKNQFSLKLSSVTAADTAVYYCARVNLRGAFDIWGQGTTVTVSS
# VL: QSVVTQPPSVSGAPGQRVTISCTGSSSNIGAGYDVHWYQQLPGTAPKLLIYENNKRPSGIPDRFSGSKSGTSATLGITGLQTGDEADYYCGTWDSSLSAVVFGGGTKLTVL
# B2: 201/202: human anti-MBG antibody, VH SEQ ID NO: 22, VL SEQ ID NO: 23 (antibody, listed as Homo sapiens, V domains shown)
# VH: QLQLQESGPGLVKPSQTLSLTCTVSGGSISSGGYYWGWIRQPPGKGLEWIGSIYYSGNTYYNPSLKSRVTISVDTSKNQFSLKLSSVTAADTAVYYCARASIAARTFDYWGQGTLVTVSS
# VL: QSVLTQPPSVSAAPGQKVTISCSGSSSNIGNNYVSWYQQLPGTAPKLLIYDNNKRPSGIPDRFSGSKSGTSATLGITGLQTGDEADYYCGTWDSSLSAYVFGTGTKVTVL
# B3: 236/237: human anti-MBG antibody, VH SEQ ID NO: 14, VL SEQ ID NO: 15 (antibody, listed as Homo sapiens, V domains shown)
# VH: QVQLQESGPGLVKPSETLSLTCTVSGGSISSSSYYWGWIRQPPGKGLEWIGSIYYSGSTYYNPSLKSRVTISVDTSKNQFSLKLSSVTAADTAVYYCARARYNWNYVLFDYWGQGTLVTVSS
# VL: QAVLTQPSSVSAAPRQRVTISCSGSASNIGRNGVSWYHQVPGKAPRLLLSHDGLVTSGVPDRLSVSKSGTSASLAISGLHSDDEGDYYCAVWDDSLNAVVFGGGTKLTVLS
# How the values were obtained:
# [1] = Competitive ELISA, relative CTS specificity, DIG as competitor; format: binding; settings: competition with immobilized MBG-BSA; normalized to MBG = 100%
# Method: (§1) The specificity (relative affinity) of anti-MBG antibodies for MBG relative to various cardiotonic steroids (CTSs) was determined in a competitive ELISA. Each anti-MBG antibody was tested for its binding to immobilized MBG in the presence of free MBG, resibufogenin (RBG), cinobufagin (CINO), ouabain (OUB) or digoxin (DIG) as a competitor. A constant amount of an anti-MBG antibody (typically 1-5 μg/mL) and varying concentrations of each CTS (from 10^−12M to 10^−5M) were pre-incubated before being added to the MBG-BSA-coated wells. After washing of the wells, an anti-human Fc, HRP-conjugated secondary antibody (at 1:5000 dilution) was added to the wells and incubated at 37° C. for 1 hr. After washing of the wells, an appropriate HRP reagent (e.g., TMB ultra, Thermo Fisher) was added to the wells. OD at 450 nm was measured by a microplate reader. MBG at 10 μM was assumed to be 100% competed, and MBG at 1 pM was assumed to be 0% competed. The data was plotted as a titration of antibody-antigen binding relative to free CTS concentration in the competition reaction to determine the free CTS concentration (μM) giving 50% maximal binding of antibody to immobilized MBG. The relative specificity of an antibody for a CTS was normalized to MBG=100%.
# [2] = Competitive ELISA, relative CTS specificity, OUB as competitor; format: binding; settings: competition with immobilized MBG-BSA; normalized to MBG = 100%
# Method: as §1
# [3] = ELISA avidity estimate on MBG-BSA; format: binding; settings: wells coated with 2 μg/ml MBG-BSA; IgG
# Method: (§2) The avidity of anti-MBG antibodies for MBG was estimated in an ELISA. Wells of a microtiter plate were coated with 2 μg/ml of either MBG-bovine serum albumin (BSA) or MBG-keyhole limpet hemocyanin (KLH). The wells were then blocked with 1% BSA. A test IgG antibody at varying concentrations (typically from about 0.0001 nM to about 25 nM) was added to the wells. The test IgG bound to immobilized MBG was detected with an anti-human Fc, horseradish peroxidase (HRP)-conjugated secondary antibody (Jackson ImmunoResearch). After washing of the wells, an appropriate HRP reagent (e.g., TMB ultra, Thermo Fisher) was added to the wells. Optical density (OD) at 450 nm was measured by a microplate reader. The concentration of test antibody at the midpoint of the binding curve is an estimate of avidity for MBG.
# [4] = system: PKC-δ in the nucleus of primary rat cardiac fibroblasts; assay: Inhibition of MBG-induced PKC-δ nuclear translocation (Western blot); settings: MBG 2 nM; nuclei isolated 30 min later; FIG. 2a
# Method: MBG was incubated with an anti-MBG antibody prior to addition to cultured primary rat cardiac fibroblasts. Nuclei were isolated 30 min later and analyzed for amount of PKC-6.
# [5] = Competitive ELISA, relative CTS specificity, free MBG as competitor; format: binding; settings: competition with immobilized MBG-BSA; normalized to MBG = 100%
# Method: as §1
# [6] = Competitive ELISA, free CTS competitors overall (summary and footnote); format: binding; settings: competitors RBG, CINO, OUB, DIG; Table 2
# Method: as §1
# [7] = Competitive ELISA, relative CTS specificity, RBG as competitor; format: binding; settings: competition with immobilized MBG-BSA; normalized to MBG = 100%
# Method: as §1
# [8] = ELISA avidity estimate on MBG-KLH; format: binding; settings: wells coated with 2 μg/ml MBG-KLH; IgG
# Method: as §2
# [9] = Competitive ELISA, relative CTS specificity, CINO as competitor; format: binding; settings: competition with immobilized MBG-BSA; normalized to MBG = 100%
# Method: as §1
# [10] = system: human umbilical cord venous endothelial cells (HUVEC); assay: Reversal of MBG inhibition of HUVEC cell proliferation (3H-thymidine); format: cell-based; settings: MBG 2 nM, antibody 20 μg/mL, 48 hr; FIG. 3a
# Method: MBG (2 nM) was incubated with an antibody (20 μg/mL in FIG. 3a with human anti-MBG mAbs, or varying concentrations (2.5-10 μg/mL) in FIG. 3b with humanized anti-MBG mAbs) prior to addition to cultured human umbilical cord venous endothelial cells (HUVEC). After 48 hr, DNA synthesis was assessed by incorporation of ^3H-thymidine.
# HUVEC cells in endothelial cell growth medium were plated onto 96-well plates. The next day, the cells were pretreated with various antibodies (2.5-20 μg/mL) and then incubated with 2 nM MBG for 48 hr. [^3H]-Thymidine was added to each well. [^3H]-Thymidine-labeled DNA was assayed by harvesting the cells and assaying for ^3H using a PerkinElmer Wallac Tailux liquid scintillation counter. […] Means were tested for significance using Student's t-test.
Molecule,Rel. CTS Specificity as % of MBG Binding: DIG [1] [%],Rel. CTS Specificity as % of MBG Binding: OUB [2] [%],"Estimated avidity (KA) (antibody concentration at 50% maximal binding to antigen, or EC50), Antigen 1 (MBG-BSA) [3] [nM]","amount of PKC-δ in the nucleus, MBG plus antibody [4]",Rel. CTS Specificity as % of MBG Binding: MBG [5] [%],reaction with CTS competitor molecules [6],Rel. CTS Specificity as % of MBG Binding: RBG [7] [%],"Estimated avidity (KA) (antibody concentration at 50% maximal binding to antigen, or EC50), Antigen 2 (MBG-KLH) [8] [nM]",Rel. CTS Specificity as % of MBG Binding: CINO [9] [%],"MBG inhibition of HUVEC cell proliferation, human mAbs [10]"
B1,0,0,1.35,reduced,100,reacted with CTS competitor RBG,20,0.20,0,
B2,0,0,0.33,reduced,100,reacted with the CTS competitors RBG and CINO,50,0.20,20,significantly reduced
B3,0,0,0.12,reduced,100,did not react with any of the CTS competitor molecules,0,0.14,0,significantly reduced
